Here are results for three molecules from article PMC12077208, “Cryo-EM reveals a double oligomeric ring scaffold of the CHIKV nsP3 peptide in complex with the NTF2L domain of host G3BP1” (mBio, 2025).

This assay deals with T1, nuclear translocation factor 2-like (NTF2L) domain of human G3BP1 (human, UniProt Q13283-1 1-138).
T1 construct: three extra residues Gly-Ala-Ser left at the N-terminus after TEV cleavage of the 6xHis tag; complete chains (1-138) are C, G, N and R; also called G3BP1-NTF2L domain; source: E. coli BL21 (DE3), purified (Ni-NTA, TEV cleavage, second Ni-NTA, SEC); not shown: His6, N-terminal, cleaved
T1 sequence (Q13283 other isoform, or with tags, fused parts or gaps): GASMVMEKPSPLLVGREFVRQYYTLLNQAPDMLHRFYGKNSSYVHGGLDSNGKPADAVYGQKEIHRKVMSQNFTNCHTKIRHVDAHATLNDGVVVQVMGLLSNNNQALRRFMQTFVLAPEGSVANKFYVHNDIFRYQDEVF
Kind of assay: ITC; peptide injected into NTF2L in the cell, 20°C, 20 mM HEPES, 150 mM NaCl, pH 7.5. The settings on record: both partners purified. (In general: In ITC the heat of successive injections is recorded.)

B1: CHIKV-26 peptide (residues Ile473 to Pro498 of CHIKV nsP3, without the α2 region) (peptide)
peptide: ITFGDFNDGEIESLSSELLTFGDFLP
By stoichiometry N is commonly meant a count of units in the complex or per binding partner. B1: the “fold reduction of binding affinity against CHIKV-43 with NTF2L” value was roughly 100 fold and the “stoichiometry N” value is 1 CHIKV-26 per NTF2L (1:1).

B2: N-terminal region of CHIKV-43, 473ITFGDFNDGEIESLSSEL490 (motif 1 and α1) (peptide)
peptide: ITFGDFNDGEIESLSSEL
notes: also called N-terminus (motif 1 and α1) of CHIKV-43
Usually Kd stands for the free concentration of one partner at which half of the binding sites on the other are occupied at equilibrium, for simple one-to-one binding. Lower therefore signals higher affinity. Molecule B2 yielded a Kd of 3400 ± 700 nM.

B3: C-terminal region of CHIKV-43, 491LTFGDFLPGEVDDLTDSD508 (motif 2 and α2) (peptide)
peptide: LTFGDFLPGEVDDLTDSD
notes: also called C-terminus (motif 2 and α2) of CHIKV-43
For the molecule B3, binding was put at a Kd of 2200 ± 500 nM.
